From the supplement of paper PMC11780869

Test system: Bacillus subtilis
Experiment: cleaved RNA product abundance (RNA/gDNA barcode ratio) relative to median wild-type variant (ratio to wild type); higher = more accumulation of the downstream cleavage product
Method in brief: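 Truncated aprE or tetM reporter mRNAs with barcoded RNase Y cleavage-site windows, mutagenized from oligos at a 9% error rate, sat in the B. subtilis chromosome. Cells grew in LB at 37°C from OD600 0.0003 to 0.3. Gel-selected cleaved RNA was reverse transcribed and its barcodes sequenced with those from genomic DNA, collapsing by UMI. Cleaved product abundance equals the RNA:gDNA barcode ratio per construct over the median construct with the unmutated site.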

[1] = experiment (reporter, strain, medium): exp 2b: truncated aprE reporter, strain BJT200, cleavage site: cggR-gapA (positions -7 to +36 mutated)
[2] = experiment (reporter, strain, medium): exp 8a: truncated aprE reporter, strain BJT201 with 2% xylose (RNase J1 expressed), cleavage site: glnRA (positions -5 to +31 mutated)
[3] = experiment (reporter, strain, medium): exp 4a: truncated aprE reporter, strain BJT201 with 2% xylose (RNase J1 expressed), cleavage site: cggR-gapA (positions -7 to +36 mutated)
[4] = experiment (reporter, strain, medium): exp 6: tetM reporter, strain 168, cleavage site: cggR-gapA (positions -7 to +36 mutated)

Sequence	cleaved RNA product abundance [1]	cleaved RNA product abundance [3]	other results
ACAGACGAAGGAGCCGCAAAGAAGTTCTTAAGGGATGAATAATGCCTCAATATAAATATCTCTCACTTATTTAAA	0.0955		
CGACATGTCCCGCTTCTTTCATTAATCCGTAAGCAACTGATTTGCTATATACATTTACCTTTTAAGAGGAGGAAT			cleaved RNA product abundance [2]: 0.25
ACAGACGAAGGAGCCGCAAAGAATTTATTAAGGGATGAATAATCCCTCAATATATATATCTCTCACTTATTTAAA	0.649	0.46	
ACAGACGAAGGAGCCGCAAAGAAGTTATTAAAGGCTGAATAATCCCTCAATATAAATATCTCTCACTTATTTAAA	0.0927	0.0571	
ACAGACGAAGGAGCCGCAAAGAAGTTATTAAGGTATGAATAATCCATCAATATAAATATCTCTCACTTATTTAAA	0.125	0.145	
ACAGACGAAGGAGCCGCAAAGAAGTTATTCAGGGATGAATAATCCCCCAAAATAAATATCTCTCACTTATTTAAA		0.165	
ACAGACGAAGGAGCCGCAAAGAAGTTATTAACGGATGAATAACCCCTCAATATAAATATCTCTCACTTATTTAAA		0.0802	
CGACATGTCCCGCTTCTTTCATTAATCCGTGAGCAACTGTTTTGCTATATACATTTAACTTTTAAGAGGAGGAAT			cleaved RNA product abundance [2]: 0.854
CGACATGTCCCGCTTCTTTCATTAATCCTTTAACAACTGTTTTGCTATATACATTTACCTTTTAAGAGGAGGAAT			cleaved RNA product abundance [2]: 0.154
ACAGACGAAGGAGCCGCAAAGAAGTTAATAAGGGATGAATAATCCCTCAATATAAAGATCTCTCACTTATTTAAA	0.182		
ACAGACGAAGGAGCCGCAAAGAAGTTATAAAGGGATGAATAATCCCTCAATATAAATAACTCTCACTTATTTAAA		0.424	
ACAGACGAAGGAGCCGCAAAGAAGTTATTAAGGGATGAATAATCACTCAATATAAAAATCTCTCACTTATTTAAA		0.136	
CGACATGTCCCGCTTCTTTCATTACTCCATTAGCAACTGTTTTGCTATATACATTTACCATTTAAGAGGAGGAAT			cleaved RNA product abundance [2]: 1.11
ACAGACGAAGGAGCCGCAAAGAAGTTATTAAGGGATGACTAATCCGTCAATATAAATATCTCTCACTTATTTAAA		0.213	
CGACATGTCCCGCTTCTTTCATTAATACGTTAGCAACTGTTTAGCTATATACATTTACCTTTTAAGAGGAGGAAT			cleaved RNA product abundance [2]: 0.376
ACAGACGAAGGAGCCGCAAAGAAGTTATTAAGGGATGAATAATCTCTCAATATAAATATTTCTCACTTATTTAAA		0.948	
ACAGACGAAGGAGCCGCAAAGAAGTTATTAAGGGACGAATAATCCCTCAATATAAATTTCTCTCACTTATTTAAA		0.559	
ACAGACGAAGGAGCCGCAAAGAAGTTATTAAGGGATGAATAATCTCTCTATATAAATATCTCTCACTTATTTAAA		0.292	
ACAGACGAAGGAGCCGCAAAGAAGTTAATAACGGATGAATAATCCCTCAATATAAATATCTCTCACTTATTTAAA		0.177	
ACAGACGAAGGAGCCGCAAAGAAGTTATTAAGGGATGAATAAAACCTCAATATAAATATCTCTCACTTATTTAAA	0.119	0.125	

Sequence	cleaved RNA product abundance [1]	cleaved RNA product abundance [3]	other results
ACAGACGAAGGAGCCGCTAAGAAGTTATTAAGGGATAAATAATCCCTCAATATAAATATCTCTCACTTATTTAAA		1.15	
CGACATGTCCCGCTTCTTTCATTAATCCGTTAGCAACTGTTTTATTATATACATTTACCTTTTAAGAGGAGGAAT			cleaved RNA product abundance [2]: 0.698
ACAGACGAAGGAGCCGCAAAGAAGTTATTATAGGATGAATAATCCCTCAATATAAATATCTCTCACTTATTTAAA	0.149	0.203	
ACAGACGAAGGAGCCGCAAAGAAGTTATTAAGGGATGAAGAATCCATCAATATAAATATCTCTCACTTATTTAAA	0.124		
ACAGACGAAGGAGCCGCAAAGATGTTATTAAGGGATGAATAATCCCTCAATATAAATACCTCTCACTTATTTAAA	0.71		
ACAGACGAAGGAGCCGCAAAGAAGTAATTAAGGGATGACTAATCCCTCAATATAAATATCTCTCACTTATTTAAA	0.123	0.289	
ACAGACGAAGGAGCCGCAAAGAAGTTATTAAGGGATGAATAATCCCTCATTATAAATATCTCTCACTTATTTAAA	0.263	0.383	cleaved RNA product abundance [4]: 0.395
CGACATGTCCCGCTTCTTTCATTAATCTGTTAGCAACTGTTTAGCTATATACATTTACCTTTTAAGAGGAGGAAT			cleaved RNA product abundance [2]: 0.727
ACAGACGAAGGAGTCGCAAAGAAGTTATTAAGGGATGAATAATCCCTCAATATAAATATCTCTCACTTATTTAAA			cleaved RNA product abundance [4]: 1.46
ACAGACGAAGGAGCCGCAAAACAGTTATTAAGGGATGAATAATCCCTCAATATAAATATCTCTCACTTATTTAAA	0.865	0.897	
ACAGACGAAGGAGCCGCAATGAAGTTATTAAGGGATGAATAATCCCTCAATATAAATATCTCTCACTTATTTAAA	1.1	1.12	cleaved RNA product abundance [4]: 0.968
CGACATGTCCCGCTTCTTTCATTAATCCGTTAGAAACTATTTTGCTATATACATTTACCTTTTAAGAGGAGGAAT			cleaved RNA product abundance [2]: 0.339
ACAGACGAAGGAGCCGCAAAGAAGTTATTAAGGGATGAATACTCCCTCCATATAAATATCTCTCACTTATTTAAA	0.138	0.218	
ACAGACGAAGGAGCCGCAAAGAAGTTATTAAGGGCTGAATAATCCCTTAATATAAATATCTCTCACTTATTTAAA		0.626	
ACAGACGAAGGAGCCGCAAAGAAGTTATTAAGGGATGAACAATCCCTCATTATAAATATCTCTCACTTATTTAAA	0.22	0.321	
ACAGACGAAGGAGCCGCAAAGAAGTTATTAAAGGATGAAAAATCCCTCAATATAAATATCTCTCACTTATTTAAA	0.104	0.183	
CGACATGTCCCGCTTCTTTCATTAATCCGTTAGCAACTGTTTATCTATATACATTTACCTTTTAAGAGGAGGAAT			cleaved RNA product abundance [2]: 0.501
ACAGACGAAGGAGCCGCAAAGAAGATATTAAGGGATCAATAATCCCTCAATATAAATATCTCTCACTTATTTAAA	0.501	0.815	
ACAGACGAAGGAGCCGCAAAGAAGTTATTAAGGGATTAATAATACCTCAATATAAATATCTCTCACTTATTTAAA	0.139	0.187	
CGACATGTCCCGCTTCTTTCATTACTCCGTTAGCAACTGTTTTGCTCTATACATTTACCTTTTAAGAGGAGGAAT			cleaved RNA product abundance [2]: 0.288

Sequence	cleaved RNA product abundance [1]	cleaved RNA product abundance [3]	other results
CGACATGTCCCGCTTCTTTCATTAATCCGCCAGCAACTGTTTTGCTATATAGATTTACCTTTTAAGAGGAGGAAT			cleaved RNA product abundance [2]: 0.284
ACAGACGAAGGAGCCGCAAAGAAGTTATTAAGTGATGAATAATCCCTCAATATAAATATCTCTCACTTATTTAAA	0.109	0.126	cleaved RNA product abundance [4]: 0.127
ACAGACGAAGGAGCCGCAAAGAAATTATTAAGGGATGAATAATCCCTCAATATAAATAGCTCTCACTTATTTAAA		0.435	
ACAGACGAAGGAGCCGCAAAGAAGTCATTAAAGGATGAATAATCCCTCAATATAAATATCTCTCACTTATTTAAA		0.158	
CGACATGTCCCGCTTCTTTCATTAATCCGATCGCAACTGTTTTGCTAGATACATTTACCTTTTAAGAGGAGGAAT			cleaved RNA product abundance [2]: 0.119
ACAGACGAAGGAGCCGCAAAGATGTTATTAAGGGATGAATAATCTCTCAATATAAATATCTCTCACTTATTTAAA		0.874	
ACAGACGAAGGAGCCGCAAAAAAGTTATTAAGGGATGAATAATCCCTCAATATAAATTTCTCTCACTTATTTAAA		1.04	
ACAGACGAAGGAGCCGCAAAGAAGTTATTAAAGGATGAATGATCCCTCAATATAAATATCTCTCACTTATTTAAA	0.0792	0.155	
ACAGACGAAGGAGCCGCAAAGAAGTTATTAAGGATGAATAATCCCTCAATATAAATATCTCTCACTTATTTAAAG		0.294	
ACAGACGAAGGAGCCGCAAAGAACGTATTAAGGGATGAATAATCCCTCAATATAAATATCTCTCACTTATTTAAA		0.724	
ACAGACGAAGGAGCCGCAAAAAATTTATTAAGCGATGAATAATCCCTCAATATAAATATCTCTCACTTATTTAAA		0.113	
ACAGACGAAGGAGCCGCAATGAACTTATTAAGGGATGAATAATCCCTCAATATAAATATCTCTCACTTATTTAAA		0.405	
CGACATGTCCCGCTTCTTTCATTAATCCGTTATCAACTGTTTTGCTATATACAATTACCTTTTAAGAGGAGGAAT			cleaved RNA product abundance [2]: 0.276
ACAGACGAAGGAGCCGCAAATAAATTATTAAGGAATGAATAATCCCTCAATATAAATATCTCTCACTTATTTAAA		0.195	
CGACATGTCCCGCTTCTTTCATTAATCCGTTAGCAAATGTTTTGCTATATACATTTAAATTTTAAGAGGAGGAAT			cleaved RNA product abundance [2]: 0.806
ACAGACGAAGGAGCCGCAAAGAAGTTATTAAGGGAGGAATAAACCCTCAATATAAATATCTCTCACTTATTTAAA		0.382	
ACAGACGAAGGAGCCGCAAAGAAGTTATTAAGGGATGAACAATGCCTCAATATAAATATCTCTCACTTATTTAAA		0.136	
CGACATGTCCCGCTTCTTTCATTAATCCGTTAGCAACTGTTTCGCTATATACATTTACCTTTTAAGAGGAGGAAT			cleaved RNA product abundance [2]: 0.358
CGACATGTCCCGCTTCTTTCATTAATCCGTTAGCAACTGTTGTGCTATATATATTTACCTTTTAAGAGGAGGAAT			cleaved RNA product abundance [2]: 0.736
ACAGACGAAGGAGCCGCAAAGAAGTTATTAAATGATGAATAATCCCTCAATATATATATCTCTCACTTATTTAAA		0.13	
